The assay concerns the target PHF43 (tau fragment generated by GluC digestion of K19, 43 residues) (human). Description: disulfide dimerization via Cys322, after reverse phase HPLC.

No end group written: not given here.

B1: PHF43 (tau fragment generated by GluC digestion of K19, 43 residues) (peptide)
peptide: NLKHQPGGGKVQIVYKPVDLSKVTSKCGSLGNIHHKPGGGQVE
modifications: also: dimer via Cys322-Cys322 disulfide (without DTT)
In turn, B1 gave a dimer fraction of 100%.

The record behind these values is patent publication EP1214598B1.
